Three substances from publication doi:10.1101/196097 can be followed below.

The target of assay [1] is Fluorescein (FAM)-labeled calmodulin T34C (UniProt P0DP23). Kind of assay: fluorescence polarisation. On the technique in general: Fluorescence polarisation rises when a labelled molecule tumbles more slowly, as on binding a larger partner.
The target in assay [2] is Calcium-independent phospholipase A2β, short variant (SH-iPLA2β), wild type (Chinese hamster (cloned from CHO cells)). Put plainly: AUC.
Assay [3] concerns the target FAM-labeled synthetic peptide corresponding to the 1-9-14 motif of iPLA2β. Kind of assay: fluorescence polarisation.
The target in assay [4] is FAM-labeled synthetic peptide corresponding to the IQ motif of iPLA2β. Kind of assay: fluorescence polarisation.

Take “Calcium-independent phospholipase A2β, short variant (SH-iPLA2β), wild type (from UniProt A0A3L7I2I8 1-807) (enzyme)”: the Kd – broadly, the constant that tells how readily two partners part at equilibrium – in assay [1] worked out at 112 nM. Further, the stoichiometry N (as a rule, the number of molecules, sites or subunits per partner or assembly) in assay [2] turned out to be 2.

Turning to “Calmodulin (from UniProt P0DP23 1-149) (natural protein)”, the Kd in assay [3] was determined as 2500 nM; in assay [4], 5900 nM. In assay [1], “iPLA2β W695E mutant (from UniProt A0A3L7I2I8 1-807) (enzyme)” came in with a Kd of over 1400 nM.
